Measured values from patent US20250188143A1, “COMBINED GENE AND RADIO THERAPY FOR THE TREATMENT OF CANCER” (FUNDACION PARA LA INVESTIGACION MEDICA APLICADA, priority 2022, published 2025).

Columns and labels:
murine STING = target: T1, murine STING (Mus musculus, UniProt Q3TBT3); settings: cited from earlier work
T1 sequence (Q3TBT3 1-378): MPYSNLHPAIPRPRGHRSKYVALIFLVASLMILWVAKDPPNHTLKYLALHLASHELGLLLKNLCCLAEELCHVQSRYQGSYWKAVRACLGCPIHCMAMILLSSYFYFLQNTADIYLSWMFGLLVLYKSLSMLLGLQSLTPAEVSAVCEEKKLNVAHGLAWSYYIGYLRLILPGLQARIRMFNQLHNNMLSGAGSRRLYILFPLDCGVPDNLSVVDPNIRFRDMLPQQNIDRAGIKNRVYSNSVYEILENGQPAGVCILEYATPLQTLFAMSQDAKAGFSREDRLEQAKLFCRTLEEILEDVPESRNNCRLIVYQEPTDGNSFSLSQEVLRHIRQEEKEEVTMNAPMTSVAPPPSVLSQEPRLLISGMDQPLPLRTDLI

B16 cells = experiment: Radiation and IFN signaling on activation of the ISREx4 promoter (luciferase); assay type: cell-based, murine; settings: B16 cells transduced with AAV8-ISREx4-LucmiR122T
Description: To this end, B16 cells received 8 Gy or 0 Gy as described above and then were transduced with AAV8-ISREx4-LucmiR122T (1×10^5 viral genomes/cell) and 48 h later 1,000 IU of either IFN-α, IFN-β or IFN-γ were added to the culture and luciferase activity was measured 48 h later as described above.

[1] = test system: MC38 cell lines stably expressing hSTINGmut; experiment: Luciferase activity under chemokine promoters; assay type: cell-based, murine; settings: for luciferase activity upon DMXAA: DMXAA 50 μg/mL, 3 or 6 h, compared to the IFN-β promoters; for luciferase activity in the absence of DMXAA (leaky expression): vehicle
Description: The CXCL9-promoter (CXCL9 according to SEQ ID NO: 23) and the CXCL10-promoter (CXCL10 according to SEQ ID NO: 24) were used for the following experiment. To this end, lentiviral vectors encoding luciferase under the control of these two different promoters were constructed. […] In addition, the lentiviral vectors encoding the short IFN-β A promoter, the short IFN-β B promoter, the short IFN-β C promoter described in experiment 1 were used as a comparison. […] After another 3 or 6 h, cells were harvested and luciferase activity measured as described in experiment 1.

[2] = test system: MC38 cell lines stably expressing hSTINGmut; experiment: scIL-12 mRNA and protein expression under STING-activity dependent promoters; assay type: cell-based, murine; settings: for scIL-12 mRNA or protein expression upon DMXAA: DMXAA 50 μg/mL
Source text: The CXCL9-promoter and the CXCL10-promoter from experiment 2, and a full length IFN-β-promoter (IFN-β according to SEQ ID NO: 25) were used for the following experiment. To this end, lentiviral vectors encoding murine scIL-12 under the control of these three different promoters were constructed. […] After the indicated time points, cells were harvested. The cell lysate was used to measure scIL-12 mRNA expression by qPCR as described before (example 1, experiment 1), whereas the supernatant was used to measure secreted scIL-12 protein in NUNC MaxiSorp flat-bottom 96-well plates using an ELISA assay kit (OptEIA, Mouse IL-12 (p70), BD Biosciences, San Diego, CA USA), following manufacturer's instructions.

[3] = test system: HEK293T cells stably expressing hSTINGmut; experiment: Luciferase activity under synthetic promoters; assay type: cell-based, human; settings: for luciferase activity upon DMXAA (inducibility): DMXAA 50 μg/mL; for luciferase activity in the absence of DMXAA (leakage): vehicle
Source text: (§1) Seven different promoters were generated, namely short STATx4 (4 STAT motifs separated by 6 nucleotides according to SEQ ID NO: 26), IRSF3×4 (4 IRSF3 motifs separated by 20 nucleotides according to SEQ ID NO: 27), short IRSF3×4 (4 IRSF3 motifs separated by 6 nucleotides according to SEQ ID NO: 28), ISREx4 (4 ISRE motifs separated by 20 nucleotides according to SEQ ID NO: 12), short ISREx4 (4 ISRE motifs separated by 6 nucleotides according to SEQ ID NO: 13), NFκBx4 (4 NFκB motifs separated by 20 nucleotides according to SEQ ID NO: 29) and short NFκBx4 (4 NFκB motifs separated by 6 nucleotides according to SEQ ID NO: 30). […] In addition, a plasmid containing the luciferase sequence under the control of the murine IFN-β-promoter (mIFN-β) and a plasmid containing the luciferase sequence under the control of CXCL10-promoter were used as controls. Either MC38 cells or human HEK293T cells, both which stably expressed hSTINGmut as described above (example 1), were transfected with the indicated plasmids using Lipofectamine3000 according to the manufacturers protocol, whereas a negative control was mock-transfected (Basic).

[4] = test system: MC38 cells stably expressing hSTINGmut; experiment: Luciferase activity under synthetic promoters; assay type: cell-based, murine; settings: DMXAA 50 μg/mL
Source text: as §1

[5] = 1,000 IU interferon alone (0 Gy)
[6] = interferon together with radiation 8 Gy

Molecule: O=C(O)Cc1cccc2c(=O)cc(-c3ccccc3)oc12 [FAA, flavone-8-acetic acid]
- activation of murine STING (murine STING): activated

Molecule: IFN-α
- luciferase activity (B16 cells; [5]): significantly increased luciferase activity
- luciferase activity (B16 cells; [6]): induced luciferase activity dramatically

B1: CXCL9-promoter: CXCL9 promoter according to SEQ ID NO: 23 (nucleic acid, listed as Mus musculus)
DNA: GACACAGACATCTCGTGAAACATCTGGAAAAGGTAGCAGGGAACGGGACAGCAGTAGCTTATGCAACTAATCTAGCAATTACAATGATAGGAAACTGTAGCCACGGTGAGACGAAATGGATTTACCCTCAACAAATTAAGAAGCTTTGACTTGTGAGGAAAGGCAGTTTGAGTCGCCATATAGTGTCATGTCCCACGTGGGAAGTACATCTCCAACCTTCATTGTACAACATTAATATAGTCATTGTATAATCTATTCCACATCCAGGTAGCAACTTTGCCTGGGGGTGGTTTCACATCCCTTACTATAAACTCCCCGTTTATGTGAAATGGAAGTAGAACATGCAGAAATTCCCTGGGATCTGAGAGTAGGGTTTTCCCCAGGACGATCAATTTGTGGTTAGTTTAGTTCTTCTAGGTCAGCTGAGGAGACCAGCCAATCAGAGACGGGAAGGAAAAGGGATTTCCTAAATAAATATGATCCCCAAGAACATGCTCTCTAAAGACATTCTCGGACTTCACTCCAACACAGTGACTCAATAGAACTCAGCTCTGCC
modifications: misc_feature 1..556 CXCL9-promoter
- luciferase activity upon DMXAA [1]: significantly higher luciferase activities
- luciferase activity in the absence of DMXAA (leaky expression) [1]: significant luciferase activity
- scIL-12 mRNA or protein expression upon DMXAA [2]: poor

B2: CXCL10-promoter: CXCL10 promoter according to SEQ ID NO: 24 (nucleic acid, listed as Mus musculus)
DNA: TCTAACTGTTCACTAAGTTGTATAGACTTTGGATCTGGCTAAATTTGGCGTGTGATTTTTTTTTAAAGTTTATTCCAAGTATTTTATAATAAAGCATATGAAGTAAAAAGCAAAAATAAACAGTGTAAACACAACAAATGTAAAAACCATGGTTAGAACCTGACTTAGATATCAGTTCTGTGTTTTATTTATGAGAGAAGGAAGATGAGAATTAAAGCCATTTCCAGACTTATTCTGCAAGGCACTGCATCTGATTTCTCAAACAGCTCACGCTTTGGAAAGTGAAACTTACCTCACTCGTTAAAAATTAAAAGGAGCACAAGAGGGGAGAGGGAAATTCCAAGTTCATGGGTCACAATAAACACAAGCAATGCCCTCGGTTTACAGGGGACTTCCCTCGGGTTGCGGAGCCTTGCTGAGTCATCTCCAAAGTCAGCCAATCAGGACTCAGGGAGGGAAACTCTTTGCAGATAAATACTCCTCAGCAGCCGGCACTCGAGAAGCGCTTCATCCACCGCTGAGAGACATCCCGAGCCAACCTTCCGGAAGCCTCCCCATCAGCACC
modifications: misc_feature 1..565 CXCL10-promoter
- luciferase activity upon DMXAA (inducibility) [3]: highest inducibility
- luciferase activity in the absence of DMXAA (leakage) [3]: considerable leakage
- luciferase activity upon DMXAA [1]: significantly higher luciferase activities
- luciferase activity in the absence of DMXAA (leaky expression) [1]: significant luciferase activity
- scIL-12 mRNA or protein expression upon DMXAA [2]: highly upregulated
- scIL-12 production in the absence of DMXAA (leakage) ([2]; vehicle): significant leakage

B3: ISREx4-promoter: 4 ISRE motifs separated by 20 nucleotides according to SEQ ID NO: 12 (nucleic acid)
DNA: ATCTCTGCGATGAACCTCACAGTTTCGCTTTCTATCTCTGCGATGAACCTCACAGTTTCGCTTTCTATCTCTGCGATGAACCTCACAGTTTCGCTTTCTATCTCTGCGATGAACCTCACAGTTTCGCTTTCTGTGCCTCTTATGATCTGGATCTCGAGCCATGGTCGAGGCCTGTAGGCGTGTACGGTGGGAGGCTTATATAAGCAGAGCTC
modifications: misc_feature 1..212 ISREx4
- luciferase activity upon DMXAA (inducibility) [3]: highest inducibility
- luciferase activity in the absence of DMXAA (leakage) [3]: undetectable leakage

B4: short STAT-promoter: 4 STAT motifs separated by 6 nucleotides according to SEQ ID NO: 26 (nucleic acid)
DNA: ATCTCTGCGATGAACCTCACTTCGCTAGAAATCTCTGCGATGAACCTCACTTCGCTAGAAATATCTCTGCGATGAACCTCACTTCGCTAGAAATCTCTGCGATGAACCTCACTTCGCTAGAAGTGCCTCTTATGATCTGGATCTCGAGCCATGGTCGAGGCCTGTAGGCGTGTACGGTGGGAGGCTTATATAAGCAGAGCTC
modifications: misc_feature 1..202 STATx4
- luciferase activity upon DMXAA (inducibility) [4]: poor inducibility

B5: IFN-β-promoter: full length IFN-β-promoter according to SEQ ID NO: 25 (nucleic acid, listed as Mus musculus)
DNA: CCAGGATGTGGGGTTCTCTCCCAAAGGGAGCTATGGCCCATTGATGTGCCATTTCTCTTATAGTACACTATTGTAAGCCCCCTGGGAGCTCACAGAGACCCTCTCCCACCATCCCACTATTTCAAAGGGCAGCAGCTGTGCCATCCTTTCAGGATGAGCAGCTACTCTGCCTGGCTTTTCAGTGGACACTTTGGCTGTTTGAGAGTTCTTTTATCTTCAGGGCTGTCTCCTTTCTGTTCTTCTCTCCTGGATATTTCTCTTCCTTTGCTCCAGCAATTGGTGAAACTGTACAAGATTTTATAAATCCTTAGTTTGTATATATTTTAACCCAGTACATAGCATATAAAATAGCCAGGAGCTTGAATAAAATGAATATTAGAAGCTGTTAGAATAAGAGAAAATGACAGAGGAAAACTGAAAGGGAGAACTGAAAGTGGGAAATTCCTCTGAGGCAGAAAGGACCATCCCTTATAAATAGCACAGGCCATGAAGGAAGATCATTCTCACTGCAGCCTTTGACAGCCTTTGCCTCATCTTGCAGGTAGCAGCCGACACCAGCCTGGCTTCCATC
modifications: misc_feature 1..571 IFNb1-promoter
- scIL-12 mRNA or protein expression upon DMXAA [2]: poor

B6: IFN-γ: exogenously added interferon, 1,000 IU (protein, UniProt P01579 24-161, looked up)
Interferon gamma: QDPYVKEAENLKKYFNAGHSDVADNGTLFLGILKNWKEESDRKIMQSQIVSFYFKLFKNFKDDQSIQKSVETIKEDMNVKFFNSNKKKRDDFEKLTNYSVTDLNVQRKAIHELIQVMAELSPAAKTGKRKRSQMLFRG
- luciferase activity (B16 cells; [5]): significantly increased luciferase activity
- luciferase activity (B16 cells; [6]): induced luciferase activity dramatically
